Measurements taken from publication PMC7279355 (International Journal of Molecular Sciences, 2020).
Ends that are not written are not given here.

B1: RXN (peptide)
chain: RYN
modifications: not fully specified; X (position 2) = biphenyl-conjugated bromotyrosine
B2: XGGGG (peptide)
chain: YGGGG
modifications: not fully specified; X (position 1) = biphenyl-conjugated bromotyrosine
B3: NXR (peptide)
chain: NYR
modifications: not fully specified; X (position 2) = biphenyl-conjugated bromotyrosine
B4: XGGGGG (peptide)
chain: YGGGGG
modifications: not fully specified; X (position 1) = biphenyl-conjugated bromotyrosine
B5: CXR (peptide)
chain: CYR
modifications: not fully specified; X (position 2) = biphenyl-conjugated bromotyrosine
B6: QXQ (peptide)
chain: QYQ
modifications: not fully specified; X (position 2) = biphenyl-conjugated bromotyrosine
B7: XCSE (peptide)
chain: YCSE
modifications: not fully specified; X (position 1) = biphenyl-conjugated bromotyrosine
B8: XGG (peptide)
chain: YGG
modifications: not fully specified; X (position 1) = biphenyl-conjugated bromotyrosine
B9: XRRRR (peptide)
chain: YRRRR
modifications: not fully specified; X (position 1) = biphenyl-conjugated bromotyrosine
B10: XNL (peptide)
chain: YNL
modifications: not fully specified; X (position 1) = biphenyl-conjugated bromotyrosine
B11: WRXNN (peptide)
chain: WRYNN
modifications: not fully specified; X (position 3) = biphenyl-conjugated bromotyrosine
B12: CXA (peptide)
chain: CYA
modifications: not fully specified; X (position 2) = biphenyl-conjugated bromotyrosine
B13: YXC (peptide)
chain: Tyr-Tyr-Cys
modifications: not fully specified (residue 2)
B14: XGGG (peptide)
chain: YGGG
modifications: not fully specified; X (position 1) = biphenyl-conjugated bromotyrosine
B15: GXG (peptide)
chain: GYG
modifications: not fully specified; X (position 2) = biphenyl-conjugated bromotyrosine
B16: WRXNQ (peptide)
chain: WRYNQ
modifications: not fully specified; X (position 3) = biphenyl-conjugated bromotyrosine
B17: XHP (peptide)
chain: YHP
modifications: not fully specified; X (position 1) = biphenyl-conjugated bromotyrosine
B18: ERXNK (peptide)
chain: ERYNK
modifications: not fully specified; X (position 3) = biphenyl-conjugated bromotyrosine
B19: XNH (peptide)
chain: YNH
modifications: not fully specified; X (position 1) = biphenyl-conjugated bromotyrosine
B20: SXR (peptide)
chain: SYR
modifications: not fully specified; X (position 2) = biphenyl-conjugated bromotyrosine
B21: WXG (peptide)
chain: WYG
modifications: not fully specified; X (position 2) = biphenyl-conjugated bromotyrosine

What follows are binders tested against T1, PD-L1, histidine (His)-tagged (UniProt Q9NZQ7 19-238) (assay: AlphaScreen or HTRF; AlphaLISA kit AL356 HV/C/F (PerkinElmer), competition: biotin-conjugated PD-1 on streptavidin-coated donor beads, His-tagged PD-L1 on anti-His acceptor beads; 2 uL each of inhibitor dilution, PD-L1 (25 nM), PD-1 (25 nM) and the two beads in 10 uL; 25 °C, 90 min; IC50 from sigmoidal fit). Settings: both partners purified.
T1 construct: PD-L1 (programmed cell death-ligand 1) of the AlphaLISA PD-1/PD-L1 kit; Held on anti-His-conjugated acceptor beads; also called His-tagged PD-L1; programmed cell death-ligand 1; source: bought: PerkinElmer AlphaLISA assay kit (AL356 HV/C/F)
T1 sequence (Q9NZQ7 19-238): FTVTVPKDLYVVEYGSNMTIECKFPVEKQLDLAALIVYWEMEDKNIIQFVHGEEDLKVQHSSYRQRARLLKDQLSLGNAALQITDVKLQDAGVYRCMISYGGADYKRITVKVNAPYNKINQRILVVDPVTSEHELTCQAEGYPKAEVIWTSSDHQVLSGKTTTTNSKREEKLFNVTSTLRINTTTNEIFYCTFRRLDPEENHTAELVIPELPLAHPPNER

Binder	IC50
B1	405 µM
B2	648 µM
B3	982 µM
B4	846 µM
B5	550 µM
B6	1960 µM
B7	1560 µM
B8	6500 µM
B9	436 µM
B10	855 µM
B11	157 µM
B12	665 µM
B13	465 µM
B14	6770 µM
B15	676 µM
B16	163 µM
B17	359 µM
B18	15.6 µM
B19	313 µM
B20	796 µM
B21	405 µM
